These results are taken from paper PMC4046112, “eIF2B is a decameric guanine nucleotide exchange factor with a γ2ε2 tetrameric core” (Nature Communications, 2014).

Sequences and labels used below:
B2: eIF2Bγ, FLAG-tagged (γ-subunit of yeast eIF2B) (natural protein, S. cerevisiae, UniProt P09032 1-578, looked up)
chain: MSIQAFVFCGKGSNLAPFTQPDFPFQTQNKDSTAATSGDKLNELVNSALDSTVINEFMQHSTRLPKALLPIGNRPMIEYVLDWCDQADFKEISVVAPVDEIELIESGLTSFLSLRKQQFELIYKALSNSNHSHHLQDPKKINFIPSKANSTGESLQKELLPRINGDFVILPCDFVTDIPPQVLVDQFRNRDDNNLAMTIYYKNSLDSSIDKKQQQKQKQQQFFTVYSENEDSERQPILLDVYSQRDVTKTKYLQIRSHLLWNYPNLTVSTKLLNSFIYFCSFELCQLLKLGPQSMSRQASFKDPFTGNQQQQNPPTTDDDEDRNHDDDDDYKPSATSIQPTYFKKKNDLILDPINCNKSLSKVFRDLSRRSWQHSKPREPIGIFILPNETLFIRANNLNAYMDANRFVLKIKSQTMFTKNIQIQSAAIGADAIVDPKCQISAHSNVKMSVLGTQANIGSRCRVAGSLLFPGVHLGDEVILENCIIGPMAKIGSKCKLSNCYIEGHYVVEPKNNFKGETLANVYLDEDEEDELIYDDSVIAGESEIAEETDSDDRSDEDSDDSEYTDEYEYEDDGLFER
notes: eIF2B gamma subunit (GCD1), S. cerevisiae; Bait of all eIF2B complex purifications; also called GCD1-FLAG2-His6; source: S. cerevisiae strains overexpressing eIF2B subunits, purified (anti-FLAG resin, FLAG peptide elution); not shown: FLAG2, C-terminal, kept

Data set [1] addresses yeast four subunit complex lacking the α-subunit, eIF2Bβδγε (octamer) (S. cerevisiae) (UniProt P32502). In words: native MS; FLAG-purified four-subunit eIF2Bβδγε in ammonium acetate, without and with 10% acetonitrile; octamer = two copies of each of four subunits.
Data set [2] deals with eIF2α phosphorylated at Ser51 (subunit of phosphorylated eIF2) (S. cerevisiae) (UniProt P20459). In words: label-free quantitative proteomics (iBAQ) of the purified complex; eIF2-eIF2B complex purified after phosphorylation of eIF2, trypsin digest, nanoLC-MS/MS, iBAQ intensities compared; eIF2B subunits relative to FLAG-tagged γ (set to 1), eIF2 subunits relative to α.
For data set [3], the target named is B2. In words: cross-linking; BS3-d0/d4 (1:1) added to purified complexes (eIF2:eIF2B, four-subunit eIF2B, eIF2Bγε core), 30 min at 26 °C, trypsin digest, nanoLC-MS/MS, MassMatrix search; the text does not tell which cross-link came from which complex. Particulars: both partners purified.
For data set [4], the target named is T1, eIF2Bδ (δ-subunit of yeast eIF2B) (S. cerevisiae, UniProt P12754 1-651).
T1 construct: eIF2B delta subunit (GCD2), S. cerevisiae; Subunit of the purified eIF2B complexes, written alone for the subunit pairs; also called eIF2B δ-subunit; δ/Gcd2
T1 sequence (looked up): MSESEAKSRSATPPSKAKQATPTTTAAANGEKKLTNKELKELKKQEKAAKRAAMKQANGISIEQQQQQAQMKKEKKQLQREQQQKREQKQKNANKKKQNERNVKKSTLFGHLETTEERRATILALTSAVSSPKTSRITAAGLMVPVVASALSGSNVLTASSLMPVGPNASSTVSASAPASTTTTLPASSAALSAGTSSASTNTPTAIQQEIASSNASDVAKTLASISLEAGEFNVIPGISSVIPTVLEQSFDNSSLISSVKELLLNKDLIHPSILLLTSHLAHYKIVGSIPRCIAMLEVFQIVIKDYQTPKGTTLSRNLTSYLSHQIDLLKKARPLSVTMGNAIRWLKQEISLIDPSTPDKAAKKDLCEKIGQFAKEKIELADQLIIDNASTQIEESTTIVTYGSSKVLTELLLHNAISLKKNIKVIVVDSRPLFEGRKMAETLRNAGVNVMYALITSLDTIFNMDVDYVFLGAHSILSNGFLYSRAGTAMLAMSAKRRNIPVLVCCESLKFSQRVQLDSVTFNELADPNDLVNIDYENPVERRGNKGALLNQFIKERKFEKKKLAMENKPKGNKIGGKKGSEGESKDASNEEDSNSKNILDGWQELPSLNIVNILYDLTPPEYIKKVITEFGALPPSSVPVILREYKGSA
Described as above. The conditions noted are these: both partners purified.

Data set [5] concerns the target T2, eIF2Bα (α-subunit of yeast eIF2B) (S. cerevisiae, UniProt P14741 1-305).
T2 construct: eIF2B alpha subunit (GCN3), S. cerevisiae; Subunit of the purified eIF2B complex, written alone for the subunit pairs; also called eIF2B α-subunit; GCN3
T2 sequence (looked up): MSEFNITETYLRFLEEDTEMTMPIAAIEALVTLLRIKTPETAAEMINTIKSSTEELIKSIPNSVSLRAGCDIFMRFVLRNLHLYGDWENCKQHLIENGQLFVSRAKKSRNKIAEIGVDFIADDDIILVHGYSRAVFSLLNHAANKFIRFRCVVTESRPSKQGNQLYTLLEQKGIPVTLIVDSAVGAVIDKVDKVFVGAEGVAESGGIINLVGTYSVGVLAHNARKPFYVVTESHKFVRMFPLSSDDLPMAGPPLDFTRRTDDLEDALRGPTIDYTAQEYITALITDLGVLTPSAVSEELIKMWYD
Described as above. Particulars: both partners purified.

For data set [6], the target named is T1, eIF2Bδ (δ-subunit of yeast eIF2B). Kind of data set: native MS; FLAG-purified four-subunit eIF2Bβδγε in ammonium acetate, without and with 10% acetonitrile; octamer = two copies of each of four subunits. Particulars: both partners purified.
Data set [7] addresses T3, eIF2Bε (ε-subunit of yeast eIF2B, untagged) (S. cerevisiae, UniProt P32501 1-712).
T3 construct: eIF2B epsilon subunit (GCD6), S. cerevisiae; Subunit of the purified eIF2B complexes, written alone for the subunit pairs; also called eIF2B ε-subunit; ε/GCD6
T3 sequence (looked up): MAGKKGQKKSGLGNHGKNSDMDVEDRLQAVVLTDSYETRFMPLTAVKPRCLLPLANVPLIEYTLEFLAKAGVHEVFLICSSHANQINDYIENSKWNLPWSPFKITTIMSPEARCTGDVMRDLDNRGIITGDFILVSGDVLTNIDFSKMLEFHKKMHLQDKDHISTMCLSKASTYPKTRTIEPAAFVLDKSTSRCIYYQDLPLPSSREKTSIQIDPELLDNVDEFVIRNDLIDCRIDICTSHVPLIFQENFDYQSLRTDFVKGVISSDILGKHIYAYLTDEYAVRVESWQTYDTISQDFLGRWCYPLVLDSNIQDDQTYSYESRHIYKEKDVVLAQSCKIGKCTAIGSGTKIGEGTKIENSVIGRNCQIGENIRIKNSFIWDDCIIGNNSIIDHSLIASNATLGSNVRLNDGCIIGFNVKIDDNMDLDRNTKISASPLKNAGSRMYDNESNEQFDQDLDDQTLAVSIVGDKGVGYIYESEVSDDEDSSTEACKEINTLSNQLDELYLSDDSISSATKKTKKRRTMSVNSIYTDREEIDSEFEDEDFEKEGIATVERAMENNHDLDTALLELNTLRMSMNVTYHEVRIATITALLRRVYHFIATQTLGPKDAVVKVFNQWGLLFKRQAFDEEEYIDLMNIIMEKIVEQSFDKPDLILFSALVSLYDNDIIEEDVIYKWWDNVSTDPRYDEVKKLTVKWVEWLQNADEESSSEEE
Described as above. Particulars: both partners purified.

Data set [8] concerns the molecule itself. Described as above.

In turn, “yeast four subunit complex lacking the α-subunit, eIF2Bβδγε (octamer), P32502 1-381; P12754 1-651; P09032 1-578; P32501 1-712” registered a stoichiometry N in data set [1] of 8.

B1: eIF2β (β-subunit of yeast eIF2) (natural protein, S. cerevisiae, UniProt P09064 1-285, looked up)
chain: MSSDLAAELGFDPALKKKKKTKKVIPDDFDAAVNGKENGSGDDLFAGLKKKKKKSKSVSADAEAEKEPTDDIAEALGELSLKKKKKKTKDSSVDAFEKELAKAGLDNVDAESKEGTPSANSSIQQEVGLPYSELLSRFFNILRTNNPELAGDRSGPKFRIPPPVCLRDGKKTIFSNIQDIAEKLHRSPEHLIQYLFAELGTSGSVDGQKRLVIKGKFQSKQMENVLRRYILEYVTCKTCKSINTELKREQSNRLFFMVCKSCGSTRSVSSIKTGFQATVGKRRRM
notes: eIF2 beta subunit (SUI3), S. cerevisiae; Subunit of the purified eIF2 complex, written alone for the subunit pairs; also called eIF2 β-subunit; SUI3
For the molecule B1, the stoichiometry N in data set [2] was 1.08. Moreover, the binding result in data set [3], in data set [4] and in data set [5] was “binds” in each case.
B2: the binding result in data set [6] and in data set [7] was “binds” each time.

B3: eIF2Bγε core complex (complex, S. cerevisiae)
chain 1: MSIQAFVFCGKGSNLAPFTQPDFPFQTQNKDSTAATSGDKLNELVNSALDSTVINEFMQHSTRLPKALLPIGNRPMIEYVLDWCDQADFKEISVVAPVDEIELIESGLTSFLSLRKQQFELIYKALSNSNHSHHLQDPKKINFIPSKANSTGESLQKELLPRINGDFVILPCDFVTDIPPQVLVDQFRNRDDNNLAMTIYYKNSLDSSIDKKQQQKQKQQQFFTVYSENEDSERQPILLDVYSQRDVTKTKYLQIRSHLLWNYPNLTVSTKLLNSFIYFCSFELCQLLKLGPQSMSRQASFKDPFTGNQQQQNPPTTDDDEDRNHDDDDDYKPSATSIQPTYFKKKNDLILDPINCNKSLSKVFRDLSRRSWQHSKPREPIGIFILPNETLFIRANNLNAYMDANRFVLKIKSQTMFTKNIQIQSAAIGADAIVDPKCQISAHSNVKMSVLGTQANIGSRCRVAGSLLFPGVHLGDEVILENCIIGPMAKIGSKCKLSNCYIEGHYVVEPKNNFKGETLANVYLDEDEEDELIYDDSVIAGESEIAEETDSDDRSDEDSDDSEYTDEYEYEDDGLFER
chain 2: MAGKKGQKKSGLGNHGKNSDMDVEDRLQAVVLTDSYETRFMPLTAVKPRCLLPLANVPLIEYTLEFLAKAGVHEVFLICSSHANQINDYIENSKWNLPWSPFKITTIMSPEARCTGDVMRDLDNRGIITGDFILVSGDVLTNIDFSKMLEFHKKMHLQDKDHISTMCLSKASTYPKTRTIEPAAFVLDKSTSRCIYYQDLPLPSSREKTSIQIDPELLDNVDEFVIRNDLIDCRIDICTSHVPLIFQENFDYQSLRTDFVKGVISSDILGKHIYAYLTDEYAVRVESWQTYDTISQDFLGRWCYPLVLDSNIQDDQTYSYESRHIYKEKDVVLAQSCKIGKCTAIGSGTKIGEGTKIENSVIGRNCQIGENIRIKNSFIWDDCIIGNNSIIDHSLIASNATLGSNVRLNDGCIIGFNVKIDDNMDLDRNTKISASPLKNAGSRMYDNESNEQFDQDLDDQTLAVSIVGDKGVGYIYESEVSDDEDSSTEACKEINTLSNQLDELYLSDDSISSATKKTKKRRTMSVNSIYTDREEIDSEFEDEDFEKEGIATVERAMENNHDLDTALLELNTLRMSMNVTYHEVRIATITALLRRVYHFIATQTLGPKDAVVKVFNQWGLLFKRQAFDEEEYIDLMNIIMEKIVEQSFDKPDLILFSALVSLYDNDIIEEDVIYKWWDNVSTDPRYDEVKKLTVKWVEWLQNADEESSSEEE
notes: eIF2B gamma subunit (GCD1), S. cerevisiae; eIF2B epsilon subunit (GCD6), S. cerevisiae; Seen as γε dimer (predominant) and γ2ε2 tetramer; the self row stands for two γε dimers joined in the tetramer; also called γε dimer; γ2ε2 tetramer; source: S. cerevisiae, purified by the FLAG-tagged γ-subunit (anti-FLAG resin); also formed from eIF2Bβδγε on adding 10% acetonitrile; not shown: FLAG2, …
Regarding B3, the “stoichiometry N” value in data set [8] is 4.

Usually stoichiometry N stands for the number of molecules, sites or subunits per partner or assembly.
